{
  "source": "paper doi:10.1101/2021.11.18.469126",
  "biological_target": "TASK3 (UniProt Q9NPC2)",
  "sequence (Q9NPC2 whole entry)": "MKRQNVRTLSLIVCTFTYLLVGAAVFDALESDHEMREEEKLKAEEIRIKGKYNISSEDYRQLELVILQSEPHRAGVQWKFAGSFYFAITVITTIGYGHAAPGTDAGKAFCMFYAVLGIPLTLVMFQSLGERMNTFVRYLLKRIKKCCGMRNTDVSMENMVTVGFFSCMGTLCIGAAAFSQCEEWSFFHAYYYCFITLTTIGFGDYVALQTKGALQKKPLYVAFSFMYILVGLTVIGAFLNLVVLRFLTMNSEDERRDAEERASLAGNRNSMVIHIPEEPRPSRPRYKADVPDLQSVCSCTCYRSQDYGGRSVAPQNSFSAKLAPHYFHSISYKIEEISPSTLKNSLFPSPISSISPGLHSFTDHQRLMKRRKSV",
  "assay": "fluorescence polarisation",
  "data": [
    {"substance": "14-3-3 protein (from UniProt P31947 1-248) (natural protein)", "values": [
      {"measurement": "Kd", "value": 4.05, "unit": "µM"},
      {"measurement": "cooperativity factor α (stabilisation of the pair by fusicoccin-A)", "value": 1340}
    ]}
  ]
}
